These results are taken from publication PMC9606269, “Biased signaling due to oligomerization of the G protein-coupled platelet-activating factor receptor” (Nature Communications, 2022).

In test [1] the target is Halo-PAFR Cys mutant 4.61. Kind of test: cysteine cross-linking with CuP, SDS-PAGE blot quantification of cell surface Halo-PAFR. Particulars: parent: est. 5, read off a plot.
In test [2] the target is Halo-PAFR Cys mutant 1.35. The test is described as above. To be noted: parent: est. 5, read off a plot.
In test [3] the target is Halo-PAFR Cys mutant 4.64. The test is described as above. Particulars: parent: est. 5, read off a plot.
Test [4] deals with Halo-PAFR Cys mutant 6.56. The description is as above. Particulars: parent: est. 5, read off a plot.
Test [5] deals with Halo-PAFR Cys mutant 2.59. Described as above. Particulars: parent: est. 5, read off a plot.
The target of test [6] is Halo-PAFR Cys mutant 4.47. The test is described as above. To be noted: parent: est. 5, read off a plot.
Test [7] has as its target Halo-PAFR Cys mutant 4.58. Described as above. To be noted: parent: est. 5, read off a plot.
Test [8] concerns the target Halo-PAFR Cys mutant 7.35. The test is described as above. To be noted: parent: est. 5, read off a plot.
The target in test [9] is Halo-PAFR Cys mutant 6.49. Described as above. Particulars: parent: est. 5, read off a plot.
The target of test [10] is Halo-PAFR Cys mutant 4.56. Described as above. To be noted: parent: est. 5, read off a plot.
Test [11] concerns the target Halo-PAFR Cys mutant 1.38. The test is described as above. To be noted: parent: est. 5, read off a plot.
For test [12], the target named is Halo-PAFR Cys mutant 2.63. Described as above. To be noted: parent: est. 5, read off a plot.
Test [13] addresses Halo-PAFR Cys mutant 7.37. The description is as above. To be noted: parent: est. 5, read off a plot.
For test [14], the target named is Halo-PAFR Cys mutant 4.57. The description is as above. Particulars: parent: est. 5, read off a plot.
Test [15] concerns the target Halo-PAFR Cys mutant 4.60. The test is described as above. Particulars: parent: est. 5, read off a plot.
The target of test [16] is Halo-PAFR Cys mutant 1.41. The test is described as above. To be noted: parent: est. 5, read off a plot.
Test [17] concerns the target Halo-PAFR Cys mutant 6.51. The description is as above. Particulars: parent: est. 5, read off a plot.
The target in test [18] is Halo-PAFR Cys mutant 3.23. The test is described as above. Particulars: parent: est. 5, read off a plot.
In test [19] the target is Halo-PAFR Cys mutant 4.54. The test is described as above. To be noted: parent: est. 5, read off a plot.
The target of test [20] is Halo-PAFR Cys mutant 4.53. The test is described as above. To be noted: parent: est. 5, read off a plot.
In test [21] the target is Halo-PAFR Cys mutant 6.54. Described as above. To be noted: parent: est. 5, read off a plot.
Test [22] deals with Halo-PAFR Cys mutant 1.39. Described as above. Particulars: parent: est. 5, read off a plot.
Test [23] concerns the target Halo-PAFR Cys mutant 4.51. The description is as above. Particulars: parent: est. 5, read off a plot.
The target in test [24] is Halo-PAFR Cys mutant 6.53. Described as above. To be noted: parent: est. 5, read off a plot.
Test [25] deals with Halo-PAFR Cys mutant 3.27. The test is described as above. Particulars: parent: est. 5, read off a plot.
Test [26] concerns the target Halo-PAFR Cys mutant 1.33. The test is described as above. Particulars: parent: est. 5, read off a plot.
For test [27], the target named is Halo-PAFR Cys mutant 7.38. The test is described as above. To be noted: parent: est. 5, read off a plot.
In test [28] the target is Halo-PAFR Cys mutant 7.33. Described as above. Particulars: parent: est. 5, read off a plot.
The target in test [29] is Halo-PAFR Cys mutant 4.48. Described as above. To be noted: parent: est. 5, read off a plot.
Test [30] addresses Halo-PAFR E178K (natural genetic variant) (human, UniProt P25105 1-342, E178K, Halo-tag covalently labelled with HaloTag Alexa Fluor 488). Nature of the test: cell-based or functional assay.
Test [31] deals with Halo-PAFR Y151C^4.59-I154C^4.62 (human, UniProt P25105 1-342, Y151C^4.59 | I154C^4.62, Halo-tag covalently labelled with HaloTag Alexa Fluor 660 (blots) or HaloTag Alexa Fluor 488 (imaging)). Kind of test: cell-based or functional assay.
Chain of Halo-PAFR Y151C^4.59-I154C^4.62 (P25105 whole entry Y151C/I154C): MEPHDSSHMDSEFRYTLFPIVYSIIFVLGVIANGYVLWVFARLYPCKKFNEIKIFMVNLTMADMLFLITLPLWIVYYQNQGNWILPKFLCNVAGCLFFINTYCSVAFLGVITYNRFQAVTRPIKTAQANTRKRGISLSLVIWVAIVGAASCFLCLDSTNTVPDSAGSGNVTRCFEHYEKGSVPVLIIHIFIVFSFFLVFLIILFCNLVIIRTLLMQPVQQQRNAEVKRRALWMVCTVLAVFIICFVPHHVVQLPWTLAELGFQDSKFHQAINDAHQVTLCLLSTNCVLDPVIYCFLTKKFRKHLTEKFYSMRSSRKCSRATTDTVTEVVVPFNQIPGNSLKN

Chain of Halo-PAFR E178K (natural genetic variant) (P25105 whole entry E178K): as the sequence (P25105 whole entry Y151C/I154C) above, with C151Y, C154I, E178K counted along it

As for “Halo-tagged wild-type human platelet-activating factor receptor (from UniProt P25105) 4.61”, the other: change of dimer cross-linking in [1] is 18%.

For “Halo-tagged wild-type human platelet-activating factor receptor (from UniProt P25105) 1.35”, the other: change of dimer cross-linking in test [2] amounted to 18%.

Consider “Halo-tagged wild-type human platelet-activating factor receptor (from UniProt P25105) 4.64”, for which the other: change of dimer cross-linking in test [3] was found to be 11%.

As to “Halo-tagged wild-type human platelet-activating factor receptor (from UniProt P25105) 6.56”, in test [4], the other: change of dimer cross-linking was determined as 9%.

As to “Halo-tagged wild-type human platelet-activating factor receptor (from UniProt P25105) 2.59”, the other: change of dimer cross-linking in test [5] is 21%.

Turning to “Halo-tagged wild-type human platelet-activating factor receptor (from UniProt P25105) 4.47”, the other: change of dimer cross-linking in test [6] worked out at 13%.

As to “Halo-tagged wild-type human platelet-activating factor receptor (from UniProt P25105) 4.58”, the other: change of dimer cross-linking in test [7] turned out to be 22%.

For “Halo-tagged wild-type human platelet-activating factor receptor (from UniProt P25105) 7.35”, the other: change of dimer cross-linking in test [8] stood at 16%.

On to “Halo-tagged wild-type human platelet-activating factor receptor (from UniProt P25105) 6.49”, for which the other: change of dimer cross-linking in test [9] was determined as 15%.

On to “Halo-tagged wild-type human platelet-activating factor receptor (from UniProt P25105) 4.56”, for which, in test [10], the other: change of dimer cross-linking came out at 22%.

In the case of “Halo-tagged wild-type human platelet-activating factor receptor (from UniProt P25105) 1.38”, the other: change of dimer cross-linking in test [11] was 16%.

As to “Halo-tagged wild-type human platelet-activating factor receptor (from UniProt P25105) 2.63”, in test [12], the other: change of dimer cross-linking was found to be 14%.

For “Halo-tagged wild-type human platelet-activating factor receptor (from UniProt P25105) 7.37”, the other: change of dimer cross-linking in test [13] stood at 19%.

In the case of “Halo-tagged wild-type human platelet-activating factor receptor (from UniProt P25105) 4.57”, the other: change of dimer cross-linking in [14] was found to be 15%.

For “Halo-tagged wild-type human platelet-activating factor receptor (from UniProt P25105) 4.60”, the other: change of dimer cross-linking in [15] amounted to 20%.

On to “Halo-tagged wild-type human platelet-activating factor receptor (from UniProt P25105) 1.41”, for which the other: change of dimer cross-linking in test [16] stood at 20%.

On to “Halo-tagged wild-type human platelet-activating factor receptor (from UniProt P25105) 6.51”, for which the other: change of dimer cross-linking in test [17] worked out at 6%.

On to “Halo-tagged wild-type human platelet-activating factor receptor (from UniProt P25105) 3.23”, for which, in [18], the other: change of dimer cross-linking was 8%.

On to “Halo-tagged wild-type human platelet-activating factor receptor (from UniProt P25105) 4.54”, for which, in test [19], the other: change of dimer cross-linking amounted to 20%.

Consider “Halo-tagged wild-type human platelet-activating factor receptor (from UniProt P25105) 4.53”, for which, in test [20], the other: change of dimer cross-linking came to 20%.

Turning to “Halo-tagged wild-type human platelet-activating factor receptor (from UniProt P25105) 6.54”, the other: change of dimer cross-linking in [21] came to 8%.

Consider “Halo-tagged wild-type human platelet-activating factor receptor (from UniProt P25105) 1.39”, for which the other: change of dimer cross-linking in test [22] is 13%.

Regarding “Halo-tagged wild-type human platelet-activating factor receptor (from UniProt P25105) 4.51”, in [23], the other: change of dimer cross-linking is 19%.

Regarding “Halo-tagged wild-type human platelet-activating factor receptor (from UniProt P25105) 6.53”, in test [24], the other: change of dimer cross-linking was determined as 10%.

Take “Halo-tagged wild-type human platelet-activating factor receptor (from UniProt P25105) 3.27”: the other: change of dimer cross-linking in test [25] came out at 9%.

As to “Halo-tagged wild-type human platelet-activating factor receptor (from UniProt P25105) 1.33”, the other: change of dimer cross-linking in test [26] was determined as 14%.

With “Halo-tagged wild-type human platelet-activating factor receptor (from UniProt P25105) 7.38”, the other: change of dimer cross-linking in test [27] worked out at 15%.

With “Halo-tagged wild-type human platelet-activating factor receptor (from UniProt P25105) 7.33”, in [28], the other: change of dimer cross-linking amounted to 15%.

With “Halo-tagged wild-type human platelet-activating factor receptor (from UniProt P25105) 4.48”, in test [29], the other: change of dimer cross-linking came to 14%.

B1: Human β-arrestin1 tagged with Rluc (natural protein, UniProt P49407 1-418, looked up)
chain: MGDKGTRVFKKASPNGKLTVYLGKRDFVDHIDLVDPVDGVVLVDPEYLKERRVYVTLTCAFRYGREDLDVLGLTFRKDLFVANVQSFPPAPEDKKPLTRLQERLIKKLGEHAYPFTFEIPPNLPCSVTLQPGPEDTGKACGVDYEVKAFCAENLEEKIHKRNSVRLVIRKVQYAPERPGPQPTAETTRQFLMSDKPLHLEASLDKEIYYHGEPISVNVHVTNNTNKTVKKIKISVRQYADICLFNTAQYKCPVAMEEADDTVAPSSTFCKVYTLTPFLANNREKRGLALDGKLKHEDTNLASSTLLREGANREILGIIVSYKVKVKLVVSRGGLLGDLASSDVAVELPFTLMHPKPKEEPPHREVPENETPVDTNLIELDTNDDDIVFEDFARQRLKGMKDDKEEEEDGTGSPQLNNR
For the molecule B1, the results for the “maximal efficacy of βarr1 recruitment, normalized to WT” value in test [30] and in test [31] were ~83 % of WT and ~60 % of WT, respectively.
